Experimental data reported in PMC4220489 (Nature Communications, 2014).
Blank lines part the entries; values can stand above or below the binder they belong to.

Legend:
[1] = target: T1, recombinant human IL-23 (p19-His co-expressed with p40 in HEK-293T) (human, UniProt Q9NPF7 20-189; P29460 23-328, N-linked glycans limited by kifunensine and trimmed with EndoH | C-mannosylated Trp319; N-linked glycans limited by kifunensine and trimmed with EndoH); assay: SPR
T1 chain 1: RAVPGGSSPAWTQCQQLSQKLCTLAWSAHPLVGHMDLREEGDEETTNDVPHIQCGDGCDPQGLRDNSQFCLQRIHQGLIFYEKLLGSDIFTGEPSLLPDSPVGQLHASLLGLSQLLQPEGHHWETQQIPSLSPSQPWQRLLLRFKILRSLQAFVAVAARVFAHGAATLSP
T1 chain 2: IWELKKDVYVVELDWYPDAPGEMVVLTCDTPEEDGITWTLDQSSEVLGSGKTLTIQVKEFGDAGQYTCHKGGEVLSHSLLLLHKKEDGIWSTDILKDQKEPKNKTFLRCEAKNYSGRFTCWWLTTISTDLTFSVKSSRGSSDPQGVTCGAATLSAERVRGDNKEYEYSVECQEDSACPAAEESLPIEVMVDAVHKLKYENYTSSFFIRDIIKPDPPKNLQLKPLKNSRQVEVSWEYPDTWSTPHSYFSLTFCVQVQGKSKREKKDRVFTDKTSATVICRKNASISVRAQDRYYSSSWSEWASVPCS

[2] = target: recombinant human IL-23 (p19-His co-expressed with p40 in HEK-293T) (human) (UniProt Q9NPF7); assay: ITC; VP-ITC, 30 °C, 20 mM Hepes, 150 mM NaCl, pH 7.4; IL-23 4.9 μM in the cell, MA12 53.2 μM in the syringe; one binding site model; apparent
[3] = target: T1, recombinant human IL-23 (p19-His …); assay: SPR
[4] = target: T2, IL-12 subunit beta (p40), as in the recombinant human IL-23 of the crystal structure (human, UniProt P29460 23-328, C-mannosylated Trp319; N-linked glycans limited by kifunensine and trimmed with EndoH); assay: crystal structure; IL-23:MA12_B2fC complex, two crystal forms (PEG 3,350 with Na2SO4 or potassium formate), molecular replacement with PDB 3DUH; conditions: both partners purified
T2 construct: signal peptide in the construct; IL-12 subunit beta (p40), human, residues 1-328, cDNA as NCBI NM_002187.2 (silent codon change at Asn248); The p40 chain of m3, written alone for the pairs of the crystal structure; also called IL-23 p40; source: HEK-293T, co-transfected with p19-His, purified as IL-23 (Talon IMAC, SEC)
T2 sequence (looked up): T1 chain 2

Kd [1]: 0.463 nM | Kd [2]: 0.35 nM | stoichiometry N [2]: 1 | koff [3]: 0.000122 s⁻¹
B1: MA12_B2fC Alphabody (His-tag removed, cysteine blocked) (designed binder)
chain: SIQEIQKEIAQIQAVIAGIQKYIYTMTGGSGGGSGGGSGGGSGMSIEEIQKQIAAIQCQIAAIQKQIYAMTGGSGGGSGGGSGGGSGMSIEEIQKQIAAIQEQILAIYKQIMAMVT
modifications: free cysteine blocked with iodoacetamide

binding result [4]: binds
B2: IL-23 subunit alpha (p19), as in the recombinant human IL-23 of the crystal structure (natural protein, UniProt Q9NPF7 20-189, looked up)
chain: T1 chain 1
modifications: N-linked glycans limited by kifunensine and trimmed with EndoH
notes: signal peptide in the construct; IL-23 subunit alpha (p19), human, residues 1-189, cDNA as NCBI NM_016584.2; residue numbers as in UniProt; The p19 chain of m3, written alone for the pairs of the crystal structure; also called IL-23 p19; source: HEK-293T, co-transfected with p40, purified as IL-23 (Talon IMAC, SEC)
